Where two headings read alike, the source gives them in different places.
Columns and labels:
[1] = target: IgG1 heavy chain with CH3 construct 2 (K392D, K409D) (human) [IgG part: P01857]; assay: native MS (peak height); transfection #9 of Table 24; crossed dimer B/69 with D/2
[2] = target: IgG1 heavy chain with CH3 construct 69 (L351D, L368E) (human) [IgG part: P01857]; assay: native MS of gel filtrated sample 1516:1337 (MF1516 on DE-side)
[3] = target: IgG1 heavy chain with CH3 construct 69 (L351D, L368E) (human) [IgG part: P01857]; assay: native MS; combination 12 co-expressed (A: VH MF1337, B: VH MF1122)
[4] = target: IgG1 heavy chain with CH3 construct 69 (L351D, L368E) (human) [IgG part: P01857]; assay: native MS (peak height); Tr. 4; CC = DE-DE homodimer of 1025-DE
[5] = target: IgG1 heavy chain with CH3 construct 69 (L351D, L368E) (human) [IgG part: P01857]; assay: native MS; combination 3 co-expressed (A: VH MF1337, B: VH MF1122)
[6] = target: IgG1 heavy chain with CH3 construct 69 (L351D, L368E) (human) [IgG part: P01857]; assay: SDS-PAGE of protein A-purified supernatant; construct expressed alone
[7] = target: IgG1 heavy chain with CH3 construct 68 (T366K, L351K) (human) [IgG part: P01857]; assay: batch test before the pK study; 1516:1337 (MF1516 on DE-side, MF1337 on KK-side)
[8] = target: IgG1 heavy chain with CH3 construct 69 (L351D, L368E) (human) [IgG part: P01857]; assay: native MS (peak height); Tr. 2; AA = DE-DE homodimer of 1337-DE
[9] = target: IgG1 heavy chain with CH3 construct 69 (L351D, L368E) (human) [IgG part: P01857]; assay: native MS (peak height); Tr. 7, 2:1:1; AA = 1337-KK with 1337-DE
[10] = target: IgG1 heavy chain with CH3 construct 69 (L351D, L368E) (human) [IgG part: P01857]; assay: native MS (peak height); Tr. 6, 1:1:2; AB = 1337-KK with 1122-DE
[11] = target: IgG1 heavy chain with CH3 construct 69 (L351D, L368E) (human) [IgG part: P01857]; assay: native MS (peak height); Tr. 5, 2:1:1; AA = 1337-KK with 1337-DE
[12] = target: IgG1 heavy chain with CH3 construct 68 (T366K, L351K) (human) [IgG part: P01857]; assay: native MS; combination 12 co-expressed (A: VH MF1337, B: VH MF1122)
[13] = target: IgG1 heavy chain with CH3 construct 69 (L351D, L368E) (human) [IgG part: P01857]; assay: native MS (peak height); Tr. 9, 1:1; 1337-KK with 1122-DE
[14] = target: IgG1 heavy chain with CH3 construct 69 (L351D, L368E) (human) [IgG part: P01857]; assay: native MS (peak height); Tr. 8, 1:1:2; AC = 1337-KK with 1025-DE
[15] = target: IgG1 heavy chain with CH3 construct 69 (L351D, L368E) (human) [IgG part: P01857]; assay: native MS (peak height); Tr. 11; by a transfection error 1025-DE stood with 1337-KK instead of 1122-KK
[16] = target: IgG1 heavy chain with CH3 construct 63 (L351D) (human) [IgG part: P01857]; assay: native MS; combination 7 co-expressed (A: VH MF1337, B: VH MF1122)
[17] = target: IgG1 heavy chain with CH3 construct 68 (T366K, L351K) (human) [IgG part: P01857]; assay: as above
[18] = target: IgG1 heavy chain with CH3 construct 69 (L351D, L368E) (human) [IgG part: P01857]; assay: native MS (peak height); Tr. 4, 1:1:2; AC = 1337-KK with 1025-DE
[19] = target: IgG1 heavy chain with CH3 construct 68 (T366K, L351K) (human) [IgG part: P01857]; assay: native MS; combination 8 co-expressed (A: VH MF1337, B: VH MF1122)
[20] = target: IgG1 heavy chain with CH3 construct 72 (L351D, R355D) (human) [IgG part: P01857]; assay: as above
[21] = target: IgG1 heavy chain with CH3 construct 68 (T366K, L351K) (human) [IgG part: P01857]; assay: SDS-PAGE of protein A-purified supernatant; construct expressed alone
[22] = target: IgG1 heavy chain with CH3 construct 69 (L351D, L368E) (human) [IgG part: P01857]; assay: native MS (peak height); Tr. 8, 1:1:2; CC = 1025-KK with 1025-DE
[23] = target: IgG1 heavy chain with CH3 construct 69 (L351D, L368E) (human) [IgG part: P01857]; assay: native MS (peak height); Tr. 7, 2:1:1; AC = 1337-KK with 1025-DE
[24] = target: IgG1 heavy chain with CH3 construct 74 (L351D, Y349D) (human) [IgG part: P01857]; assay: native MS; combination 10 co-expressed (A: VH MF1337, B: VH MF1122)
[25] = target: IgG1 heavy chain with CH3 construct 68 (T366K, L351K) (human) [IgG part: P01857]; assay: as above
[26] = target: IgG1 heavy chain with CH3 construct 69 (L351D, L368E) (human) [IgG part: P01857]; assay: native MS (peak height); Tr. 10, 1:1; 1337-KK with 1025-DE
[27] = target: IgG1 heavy chain with CH3 construct 69 (L351D, L368E) (human) [IgG part: P01857]; assay: native MS (peak height); Tr. 5, 2:1:1; AB = 1337-KK with 1122-DE
[28] = target: IgG1 heavy chain with CH3 construct 71 (L351D, Y349E) (human) [IgG part: P01857]; assay: native MS; combination 11 co-expressed (A: VH MF1337, B: VH MF1122)
[29] = target: IgG1 heavy chain with CH3 construct 68 (T366K, L351K) (human) [IgG part: P01857]; assay: as above
[30] = target: IgG1 heavy chain with CH3 construct 69 (L351D, L368E) (human) [IgG part: P01857]; assay: native MS (peak height); Tr. 3, 1:2:1; BC = 1025-KK with 1122-DE
[31] = target: IgG1 heavy chain with CH3 construct 69 (L351D, L368E) (human) [IgG part: P01857]; assay: native MS (peak height); Tr. 1, 2:1:1; AC = 1337-KK with 1025-DE
[32] = target: IgG1 heavy chain with CH3 construct 69 (L351D, L368E) (human) [IgG part: P01857]; assay: native MS (peak height); Tr. 2, 2:1:1; AB = 1122-KK with 1337-DE
[33] = target: IgG1 heavy chain with CH3 construct 69 (L351D, L368E) (human) [IgG part: P01857]; assay: native MS (peak height); Tr. 4, 1:1:2; BC = 1122-KK with 1025-DE
[34] = target: IgG1 heavy chain with CH3 construct 69 (L351D, L368E) (human) [IgG part: P01857]; assay: native MS (peak height); Tr. 2, 2:1:1; AC = 1025-KK with 1337-DE
[35] = target: IgG1 heavy chain with CH3 construct 69 (L351D, L368E) (human) [IgG part: P01857]; assay: native MS (peak height); transfection #11 of Table 24; AB = A/68 with B/69
[36] = target: IgG1 heavy chain with CH3 construct 69 (L351D, L368E) (human) [IgG part: P01857]; assay: native MS (peak height); Tr. 6, 1:1:2; BB = 1122-KK with 1122-DE
[37] = target: IgG1 heavy chain with CH3 construct 69 (L351D, L368E) (human) [IgG part: P01857]
[38] = target: IgG1 heavy chain with CH3 construct 68 (T366K, L351K) (human) [IgG part: P01857]; assay: native MS; combination 9 co-expressed (A: VH MF1337, B: VH MF1122)
[39] = target: IgG1 heavy chain with CH3 construct 75 (L351D, Y349D, R355D) (human) [IgG part: P01857]; assay: as above
[40] = target: IgG1 heavy chain with CH3 construct 69 (L351D, L368E) (human) [IgG part: P01857]; assay: native MS (peak height); Tr. 1, 2:1:1; AB = 1337-KK with 1122-DE
[41] = target: IgG1 heavy chain with CH3 construct 69 (L351D, L368E) (human) [IgG part: P01857]; assay: native MS (peak height); Tr. 3, 1:2:1; AB = 1337-KK with 1122-DE

IgG1 heavy chain with CH3 construct 69 (L351D, L368E) (from UniProt P01857-1)
percent of species in the mixture [1]: 3%
percent of species in the sample [2]: 2%
% BB found [3]: 0%
Observed species (%) [4]: 1%
% BB found [5]: 0%
% IgG [6]: 83.7%
% half molecule [6]: 16.3%
percent bispecific IgG [7]: > 90%
Observed species (%) [8]: 6%

IgG1 heavy chain with CH3 construct 68 (T366K, L351K) (from UniProt P01857-1)
Observed species (%) [9]: 46%
Observed species (%) [10]: 75%
Observed species (%) [11]: 57%
% AA found [12]: 0%
% AB found [3]: 92%
Observed species (%) [13]: > 98%
Observed species (%) [14]: 60%
Observed species (%) [15]: > 98%
% AB found [16]: 77%
% AA found [17]: 0%
Observed species (%) [18]: 66%
% AA found [19]: 0%
% AB found [20]: 79%
% IgG [21]: 34.7%
% half molecule [21]: 65.3%
Observed species (%) [22]: 40%
Observed species (%) [23]: 54%
% AB found [24]: 95%
% AA found [25]: 1%
Observed species (%) [26]: > 98%
Observed species (%) [27]: 43%
% AB found [28]: 95%
% AA found [29]: 1%
Observed species (%) [30]: 46%
Observed species (%) [31]: 57%
Observed species (%) [32]: 40%
Observed species (%) [33]: 33%
Observed species (%) [34]: 54%
percent of species in the mixture [35]: 33%
Observed species (%) [36]: 25%
percent of species in the mixture [37]: 30%
% AA found [38]: 1%
% AB found [39]: 93%
Observed species (%) [40]: 43%
Observed species (%) [41]: 54%

From patent publication US20150139996A1
